The RNAGym collection of RNA variant scans (doi:10.1073/pnas.2313332121)
Fewer inactive variants are shown than the library holds.

B1: TPR 5TU (parent)
chain: GGAUCUUCUCGAUCUAACAAAAAAGACAAAUCUGCCACAAAGCUUGAGAGCAUCUUCGGAUGCAGAGGCGGCAGCCUUCGGUGGCGCGAUAGCGCCAACGUUCUCAACUAUGACACGCAAAACGCGUGCUCCGUUGAAUGGAGUUUAUCAUG

Variants of: B1
Test: polymerase ribozyme fitness, log enrichment relative to wild type (log ratio); higher = more active; in vitro selection for triplet polymerase activity
How it was run: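 For each subunit of a heterodimeric triplet polymerase ribozyme, a mutant library was built by PCR and transcribed, then taken through a single in vitro selection round in triplicate. Selection involved annealing to a biotinylated primer, the partner subunit and triplets, incubation frozen at −7 °C, gel excision of extended constructs, capture on streptavidin beads and RT-PCR. Genotypes were retained after Illumina sequencing of inputs and outputs only with ≥10 input reads and ≥1 read in each output. Fitness is defined as the logarithm of a genotype's enrichment relative to wild-type enrichment, using inverse-variance-weighted averages across replicates, with the logarithm taken to base 2.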

Variant	polymerase ribozyme fitness (log ratio)
G11C A23C G58A G81C C87A A138U	≤ -4.2
G11A U13C C36U A49U A60U	-4.19
C10A C93G	≤ -4.2
C10A A23U G83U	≤ -4.2
G11A A21U G83U G117U	-2.13
G11C C38A G59A C125G	-2.58
U9A C87A	≤ -4.2
G11C A23U G50C C54G C57U A89G C116A G124C U139A	≤ -4.2
U9G A21U C35U U55A C108U C118U G128A G133A	≤ -4.2
U9C A24U A41G C75U G83A G84A C93A	≤ -4.2
U9A U15G G50C G94A U135C G143A	≤ -4.2
G11A C14A A40G C79A C93A G124A	≤ -4.2
C10U A39G C54G C63A G70C C93U G141A	≤ -4.2
U9G A17G A52U C75G G84A C105U	≤ -4.2
U9G U33A C36A C63U C79G C118A U135A	≤ -4.2
U9A C75U G88C C99G U101A C118U A137C	≤ -4.2
U9G A19C A23G A39G C93G U139A G152U	≤ -4.2
C10A A12G U53A U55A G92C G94C C105U	≤ -4.2
U9C C18U G71C U82A C85G U146G A150C	≤ -4.2
C10G C32A G58U G59U U130C	≤ -4.2
G11U A16C A24G G58C C87A C99U	≤ -4.2

Variant	polymerase ribozyme fitness (log ratio)
U9A A16U U56A G84A C131U	≤ -4.2
C10U A22U A29G U61A C95G	-4
C10U C54U U55G	≤ -4.2
C10G U13G A16C U56A G92C C105A C114U	≤ -4.2
U9G G59C G92C A107G A115G	≤ -4.2
C10U C54U G71U C85A C96G G133C U145G G152A	≤ -4.2
G11C C85U A119G	-2.02
C10G C75U	-3.87
C10G A64C C76A G92C U135A A138G U151G	≤ -4.2
G11A U61A C85A A122C A150C	≤ -4.2
U9A A39U U61A C76U C93A A120U G141A	≤ -4.2
G11A A26G U55A C87A G124C G143C U148C	≤ -4.2
G11A G48A A52C G83A C87U A119C G124C	≤ -4.2
U9G A29U U45G C75A G88U C96A G141A	≤ -4.2
C10G C54U U55A C79G C93U A98G C116G A122U	≤ -4.2
C10U A26U G42A A47U A89C C96U A107U G112C	≤ -4.2
C10G G68C G83U A107C	≤ -4.2
C10A A21G A29G C51U A52G U78C C95A A122U U146G	≤ -4.2
U9A C27U C36A G42C C69A G80A G136U G141C	≤ -4.2
C10U A28U A52G U56A A73C C93U U145C C149G	≤ -4.2
C10G A52C G70U C85G G117U	≤ -4.2

Variant	polymerase ribozyme fitness (log ratio)
C10U A39G U102C	≤ -4.2
C8U G141U	-2.76
U9A C38A C72A G84A C125U	≤ -4.2
U9C G84A C103U	≤ -4.2
U9G U13G A22C A28U A41C C76U G92A U148A	≤ -4.2
C10U A12C G34A G92C	-4.16
C10A U13G G25C G34U U61A C63U G68C U77C C79A G86A	≤ -4.2
U9G A29G C85U A121U G128U	≤ -4.2
C10A C54U G67C C85A A107U	≤ -4.2
U9G G58C C93G C118U G143A U144C	≤ -4.2
U9C C54A C87G U134A	≤ -4.2
G11C A49C U53G G141A	≤ -4.2
C10G A37U U55A G94A C95G G140C	≤ -4.2
C10G	-2.78
C10A	-2.83
C10U	-2.16
C10U A22G A49G A142C	≤ -4.2
G11A C51G C87G A89U C125A U135G	≤ -4.2
G11A A26U G48A U109C A147G	≤ -4.2
C10G A28C C51U C87U G88A A91C G117C G124U U130G	≤ -4.2
C10U A28U G94A U127G	-4.04

Variant	polymerase ribozyme fitness (log ratio)
U9G A47G	-3.86
G11C A12G A41U C76A G83A C103G C114A	≤ -4.2
C10G C85U	-3
C10G A37C G50A C95U C99A G143C	≤ -4.2
G11C A17G C32A C72U A113U G117U A122U U148G	≤ -4.2
G11A A12C A23C G46A A73U G80C A97U U109A U145A	≤ -4.2
G11C A20U A40U U82G G83A C93A C108A	≤ -4.2
C10U U15G A23U C43U U82C G92U U104C	≤ -4.2
U9G C14G A110C C123U G141A	≤ -4.2
G11U A47C G50U C57G A64U C76G	≤ -4.2
U9G C85U G92U U145A	≤ -4.2
C10G C18G U55C C57U U61A	-4.15
C10A A17C A20C G34U G58C U90G	≤ -4.2
U9G U31G G83C C99U U144G	≤ -4.2
U9C A12C A20G U53A A73U G92U C114A A121U G140A U151A	≤ -4.2
U9G U44G G50A U82C C95U U139G	≤ -4.2
U9A A16U C57U G70A C79A G88U C95U A119U U151A	≤ -4.2
G11A C14U U61A G80C C85G C96U A98G C108A	≤ -4.2
C10G A20C U33G C93A G94U C96G C114U U145A	≤ -4.2
U9G A20U U31C C38G G86A U127G	≤ -4.2
